Consider one sequence from PMC7337906.

In the data set the target is T1, Tof1(613-728) minimal;Csm3(48-157) internal_change (Chaetomium thermophilum;Chaetomium thermophilum) (UniProt G0S825+Q2H3R6).
T1 sequence 1: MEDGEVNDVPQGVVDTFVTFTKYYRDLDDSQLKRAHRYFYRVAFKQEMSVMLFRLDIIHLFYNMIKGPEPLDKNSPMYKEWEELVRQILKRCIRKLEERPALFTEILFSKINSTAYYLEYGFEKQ
T1 sequence 2: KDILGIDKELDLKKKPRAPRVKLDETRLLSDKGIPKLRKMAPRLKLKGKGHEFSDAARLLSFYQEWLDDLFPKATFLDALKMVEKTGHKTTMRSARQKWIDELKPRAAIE
Description: EMSA. The following applies: HBS-200 (20 mM HEPES pH 7.5, 200 mM NaCl, 1 mM TCEP) + 10% glycerol, 50 nM DNA, 30 min on ice; 6% polyacrylamide tris-glycine gel. A general note: In EMSA bound probe runs differently from free probe, usually more slowly.

For “GTAGTTTGTACTGGTGACGA (double strand) [dsDNA 20 bp]”, the binding signal (fold weaker than P1+P2) was found to be 2.
